The values below come from patent publication US20200157223A1 (SHANGHAI JMT BIO TECHNOLOGY, published 2020).

Test [1] deals with T1, CD47-His (12283-H08H-200, Sino Biological) (human, UniProt Q08722 19-139).
T1 construct: Bought protein coated on ELISA plates; also called CD47 antigen; human CD47 (protein level); not shown: His tag
Briefly: ELISA on coated CD47-His. On the technique in general: In an ELISA, binding on a coated surface is turned into a signal by an enzyme label.

Test [2] has as its target T2, CD47 on the cell surface (A431, Raji, SKBR-3, NCI-H441, NK92MI-CD16a cells) (human, UniProt Q08722 19-323).
T2 construct: whole, on cells; also called CD47 antigen; human CD47 (cellular level)
The test is described as follows: flow cytometry on Raji cells. A general note: Flow cytometry measures light scatter and fluorescence of single cells or particles in a stream.

The target of test [3] is T2, CD47 on the cell surface (A431, Raji, …). Briefly: flow cytometry on A431 cells.
The target is the same in test [4]. Briefly: flow cytometry on SKBR-3 cells.
The target is the same in test [5]. The test is described as follows: flow cytometry on NCI-H441 cells.
Test [6] has the same target. Briefly: flow cytometry on IFN-γ-stimulated NCI-H441 cells.
The target is the same in test [7]. Briefly: cell-based or functional assay.
For test [8] the target is unchanged. The test is described as follows: flow cytometry on A431 cells (no CD20).

B1: Anti-CD47 mAb (Hu5F9-G4) (antibody, human IgG4 S228P, kappa)
heavy: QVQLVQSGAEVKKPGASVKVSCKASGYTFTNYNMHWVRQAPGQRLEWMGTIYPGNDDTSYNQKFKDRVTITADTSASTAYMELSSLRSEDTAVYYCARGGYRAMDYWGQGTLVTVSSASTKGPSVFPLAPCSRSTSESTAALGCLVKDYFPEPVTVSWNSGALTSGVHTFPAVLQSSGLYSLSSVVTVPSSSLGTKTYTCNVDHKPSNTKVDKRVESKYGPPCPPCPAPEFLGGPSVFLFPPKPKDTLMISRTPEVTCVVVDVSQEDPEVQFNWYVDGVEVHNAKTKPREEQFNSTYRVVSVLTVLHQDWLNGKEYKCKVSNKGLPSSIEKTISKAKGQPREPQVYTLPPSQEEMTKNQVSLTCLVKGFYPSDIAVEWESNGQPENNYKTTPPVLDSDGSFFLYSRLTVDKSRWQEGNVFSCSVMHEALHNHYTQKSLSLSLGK
light: DIVMTQSPLSLPVTPGEPASISCRSSQSIVYSNGNTYLGWYLQKPGQSPQLLIYKVSNRFSGVPDRFSGSGSGTDFTLKISRVEAEDVGVYYCFQGSHVPYTFGQGTKLEIKRTVAAPSVFIFPPSDEQLKSGTASVVCLLNNFYPREAKVQWKVDNALQSGNSQESVTEQDSKDSTYSLSSTLTLSKADYEKHKVYACEVTHQGLSSPVTKSFNRGEC
notes: also called anti-CD47 antibody; Hu5F9-64
Turning to B1, the concentration for a half-maximal effect (EC50) in test [1] was 0.00544 µg/mL; in test [2] it was 0.258 nM; in test [3], 0.865 nM; in test [4], 0.456 nM; in test [5], 0.286 nM; in test [6], 0.387 nM. Besides, in test [5], the “Maximum average fluorescence intensity” value stood at 120000.

B2: Anti-EGFR mAb (JMT101) (antibody, human IgG1, kappa, V domains shown)
VH: QVQLQESGPGLVKPSETLSLTCTVSGFSLSNYDVHWVRQAPGKGLEWLGVIWSGGNTDYNTPFTSRLTISVDTSKNQFSLKLSSVTAADTAVYYCARALDYYDYEFAYWGQGTLVTVSS
VL: EIVLTQSPDFQSVTPKEKVTITCRASQSIGTNIHWYQQKPDQSPKLLIKYASESISGIPSRFSGSGSGTDFTLTINSLEAEDAATYYCQQNNEWPTSFGQGTKLEIKR
notes: Humanized anti-EGFR monoclonal antibody
Regarding B2, the binding result in test [1] is “no binding”.

B3: Anti-EGFR-Fc1-D1-Fc2 (bispecific antibody, human IgG1, kappa)
heavy: not shown
light: EIVLTQSPDFQSVTPKEKVTITCRASQSIGTNIHWYQQKPDQSPKLLIKYASESISGIPSRFSGSGSGTDFTLTINSLEAEDAATYYCQQNNEWPTSFGQGTKLEIKRTVAAPSVFIFPPSDEQLKSGTASVVCLLNNFYPREAKVQWKVDNALQSGNSQESVTEQDSKDSTYSLSSTLTLSKADYEKHKVYACEVTHQGLSSPVTKSFNRGEC
chain: not shown
notes: Knobs-into-holes heterodimer; left arm is the JMT101 half antibody; also called Anti-EGFR-Fc1-D1-Fe2
B3: the “toxic side effects caused by NK cells (ADCC on NK92MI-CD16a cells), reduction against the D1^m proteins” value in test [7] is ≥ 1000 fold. Also, the 50% effective concentration (EC50) in test [1] came to 0.0939 µg/mL.

B4: Anti-EGFR-Fc1-D1^m-D2-Fc2 (bispecific antibody, human IgG1, kappa)
heavy: not shown
light: B3 light
chain: not shown
notes: Knobs-into-holes heterodimer
As for B4, in test [1], the binding result is given as “binds”.

B5: Anti-EGFR-Fc1-D1-D2-Fc2 (bispecific antibody, human IgG1, kappa)
heavy: not shown
light: B3 light
chain: not shown
Consider B5, for which, in test [7], the “toxic side effects caused by NK cells (ADCC on NK92MI-CD16a cells), reduction against the D1^m proteins” value was ≥ 1000 fold.

B6: Anti-EGFR-Fc1-D1-D2-D3-Fc2 (bispecific antibody, human IgG1, kappa)
heavy: not shown
light: B3 light
chain: not shown
In the case of B6, the “toxic side effects caused by NK cells (ADCC on NK92MI-CD16a cells), reduction against the D1^m proteins” value in test [7] is ≥ 1000 fold.

B7: Anti-EGFR-Fc1-D1^m-Fc2 (bispecific antibody, human IgG1, kappa)
heavy: not shown
light: B3 light
chain: not shown
notes: Knobs-into-holes heterodimer
For B7, in test [1], the binding result is on record as “binds”.

B8: Obi-Fc1-D1-Fc2 (bispecific antibody)
heavy: not shown
light: DIVMTQTPLSLPVTPGEPASISCRSSKSLLHSNGITYLYWYLQKPGQSPQLLIYQMSNLVSGVPDRFSGSGSGTDFTLKISRVEAEDVGVYYCAQNLELPYTFGGGTKVEIKRTVAAPSVFIFPPSDEQLKSGTASVVCLLNNFYPREAKVQWKVDNALQSGNSQESVTEQDSKDSTYSLSSTLTLSKADYEKHKVYACEVTHQGLSSPVTKSFNRGEC
chain: not shown
As to B8, the “toxic side effects caused by NK cells (ADCC on NK92MI-CD16a cells), reduction against the D1^m proteins” value in test [7] was ≥ 1000 fold.

B9: Anti-CD20 mAb (Obinutuzumab) (antibody, human IgG1, kappa)
heavy: not shown
light: B8 light
notes: also called Anti-CD20 (Obinutuzumab)
For the molecule B9, in test [8], the binding result was “no binding”.

B10: Obi-Fc1-D1-D2-D3-Fc2 (bispecific antibody)
heavy: not shown
light: B8 light
chain: not shown
B10: the “toxic side effects caused by NK cells (ADCC on NK92MI-CD16a cells), reduction against the D1^m proteins” value in test [7] was ≥ 1000 fold.

B11: Obi-Fc1-D1-D2-Fc2 (bispecific antibody)
heavy: not shown
light: B8 light
chain: not shown
Consider B11, for which the “toxic side effects caused by NK cells (ADCC on NK92MI-CD16a cells), reduction against the D1^m proteins” value in test [7] was ≥ 1000 fold.

B12: Anti-CD20 mAb (Ofatumumab) (antibody, human IgG1, kappa)
heavy: not shown
light: not shown
notes: also called Anti-CD20 (Ofatumumab)
In the case of B12, the binding result in test [1] and in test [8] was “no binding” in each case. In test [5], the “Maximum average fluorescence intensity” value was 3500.

In general, EC50 refers to the concentration at which the effect is half-maximal. A low value points to a more potent agent.
